Columns and labels:
muIL-27 = target: T1, muIL-27 (Mus musculus, UniProt O35228+Q8K3I6); test: Phospho-STAT3 (BIO-PLEX) neutralization of IL-27 by soluble receptors, total human PBMCs; assay type: cell-based; conditions: ligand muIL-27 at EC90 (2 nM)
T1 construct: purchased R&D Systems
T1 sequence (Q8K3I6 29-234): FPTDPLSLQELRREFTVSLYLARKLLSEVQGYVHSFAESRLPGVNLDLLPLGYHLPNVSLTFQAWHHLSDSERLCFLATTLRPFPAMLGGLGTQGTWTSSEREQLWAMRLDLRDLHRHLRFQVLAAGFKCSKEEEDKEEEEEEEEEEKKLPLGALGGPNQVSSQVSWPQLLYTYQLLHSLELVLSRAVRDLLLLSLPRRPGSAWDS
T1 sequence (O35228 19-228): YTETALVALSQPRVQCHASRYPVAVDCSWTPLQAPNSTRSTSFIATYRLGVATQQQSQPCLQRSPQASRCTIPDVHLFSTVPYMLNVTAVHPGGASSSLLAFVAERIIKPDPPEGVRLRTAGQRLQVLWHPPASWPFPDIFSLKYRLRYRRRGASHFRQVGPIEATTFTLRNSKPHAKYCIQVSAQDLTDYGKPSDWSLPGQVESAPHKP
Source text: (§1) Whole mouse spleens were harvested from C57 B1/6 mice and washed two times with 1×PBS before being plated out at 2×10^5 cells/well in assay media (RPMI 1640 plus 10% fetal bovine serum) in 96-well, round-bottom tissue culture plates. Total human PBMC (peripheral blood mononuclear cells) were thawed from a frozen vial collected from a leukapherisis donation and washed two times with 1×PBS before being plated out at 10^6 cells/well in assay media in 96-well, round-bottom tissue culture plates. […] Following pre-incubation, treatments were added to the plates containing the cells and incubated together at 37° C. for 15 minutes.
(§2) Following incubation, cells were washed with ice-cold wash buffer (BIO-PLEX Cell Lysis Kit, BIO-RAD Laboratories, Hercules, Calif.) and put on ice to stop the reaction according to manufacturer's instructions. […]
(§3) Capture beads (BIO-PLEX Phospho-Stat3 Assay, BIO-RAD Laboratories) were combined with 50 μL of 1:1 diluted lysates and added to a 96-well filter plate according to manufacture's instructions (BIO-PLEX Phosphoprotein Detection Kit, BIO-RAD Laboratories). […] After the final wash, beads were resuspended in 125 μL/well of bead suspension buffer, shaken for 30 seconds, and read on an array reader (BIO-PLEX, BIO-RAD Laboratories) according to the manufacture's instructions. Data were analyzed using analytical software (BIO-PLEX MANAGER 3.0, BIO-RAD Laboratories). […]

huIL-27 = target: T2, huIL-27 (Homo sapiens, UniProt Q14213+Q8NEV9); test: as above; assay type: cell-based; conditions: ligand huIL-27 at EC90 (2 nM)
T2 construct: purchased R&D Systems
T2 sequence (Q8NEV9 29-243): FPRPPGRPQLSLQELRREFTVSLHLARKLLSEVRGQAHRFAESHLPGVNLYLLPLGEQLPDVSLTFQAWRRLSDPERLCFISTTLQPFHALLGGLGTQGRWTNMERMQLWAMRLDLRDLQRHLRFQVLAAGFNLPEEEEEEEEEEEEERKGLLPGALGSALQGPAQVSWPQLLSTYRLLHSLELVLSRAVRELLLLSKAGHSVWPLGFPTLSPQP
T2 sequence (Q14213 21-229): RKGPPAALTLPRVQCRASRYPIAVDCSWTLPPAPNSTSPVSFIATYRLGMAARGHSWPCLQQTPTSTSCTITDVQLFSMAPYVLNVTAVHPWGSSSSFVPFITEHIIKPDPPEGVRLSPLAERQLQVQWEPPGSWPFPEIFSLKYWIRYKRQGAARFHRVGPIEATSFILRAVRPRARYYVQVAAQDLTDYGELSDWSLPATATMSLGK
Source text: as §1, §2, §3

P815 cells = test: CTL-specific lysis assay with splenocytes of GVHD mice; assay type: cell-based, mouse; conditions: splenocytes of treated GVHD mice against calcein-labeled P815 cells; versus PBS group
Description: Efficacy of IL-27 antagonists was assayed in a mouse model of acute graft-vs-host disease (Durie et al., J. Clin. Invest. 94:1333-1338, 1994). Parental mice (C57BL/6; n=12) were euthanized, and their spleens were collected. The pooled spleens were smashed using two glass slides to dissociate splenic cells. Lysis buffer was added to the splenocyte suspension to remove red blood cells. The cells were washed in RPMI 1640 (10% FBS) medium and resuspended in an appropriate amount of PBS to make a cell concentration of 300 million cells/ml. Protein treatments were administered by intraperitoneal injection every other day beginning on day-1 and continuing until day 15. Dexamethasone (DEX) was administered by injection daily on days 0 through 6. […] Mice were monitored 3 times a week for changes in body weight and any signs of moribundity. […] Spleens were collected, and a CTL-specific lysis assay using P815 cells was performed as a quantitative measurement of acute GVHD. […]
For CTL assay, P815 cells (a tumor cell line from mice with the same MHC class as DBA2) were labeled with calcein, then splenocytes from each experimental animal were added to the calcein-labeled P815 cells at effector (splenocytes):target (P815) ratios of 100:1, 33:1, and 10:1. Four hours after incubation at 37° C., supernatants were collected and fluorescence was measured (485 nm/535 nm).

human IL-27RA-Fc5: Extracellular domain of human IL27RA (amino acids 1 to 512 of SEQ ID NO:3) fused to Fc5, effector minus human gamma1 Fc; SEQ ID NO:16
IC50 (muIL-27): 2.97 nM | IC50 (huIL-27): 0.95 nM | CTL activity (P815 cells): reduced CTL activity compared to the PBS group

From US20100093076A1, “SOLUBLE IL-27 RECEPTOR” (priority 2006, published 2010)
